Patent US20230374151A1 (GlaxoSmithKline, published 2023)

What was measured:
[1] = target: T1, TnMUC1 (aberrantly glycosylated MUC1) on tumour cells (human, UniProt P15941 24-1255, truncated Tn / sialyl-Tn O-glycans on Ser/Thr (aberrant glycosylation)); test: flow cytometry on TnMUC1-positive Jurkat cells, His-tagged scFv pre-complexed with anti-His-PE, n=1 representative
T1 construct: whole, on cells; also called Tn/STnMUC-1; TnMUC1-positive MDA-MB-468 cells

[2] = target: T1, TnMUC1 (aberrantly glycosylated MUC1) …; test: flow cytometry on MDA-MB-468 cells, scFv pre-complexed with anti-His-PE; experiment 75-14
Method: (§1) Cells were detached and cells were re-suspended in appropriate cell culture media or transferred to Falcon tube. A sample of each cell suspension was then diluted 1:5 with DPBS (to give a final volume of 0.5 mL) and the number of viable cells per mL (based on trypan blue exclusion) were determined for each cell suspension using the Vi-CELL XR Cell Viability Analyser (Default cell type setting used). Cell suspensions were then diluted in appropriate cell culture media and seeded into fresh cell culture flasks at a density of 6.25×10⁴ viable cells per cm². Cells were incubated in a humidified incubator at 37° C. with 5% CO₂ for 48 hours (or until required). On the day of assay, cells were detached from flasks, resuspended in appropriate cell culture media (if appropriate) and the number of viable cells per mL counted as described previously. Cell suspensions were then centrifuged at 500×g for 5 minutes before resuspending cell pellets in FACS Buffer at a density of 4×10⁶ viable cells per mL.
(§2) scFv proteins were diluted to 62.5 nM in DPBS and dispensed into row A of a 96-well V-bottom plate before performing a 1:4 serial dilution in FACS Buffer down the plate to give 25 μL (final volume) per well (FACS Buffer in row H only). […]

[3] = target: T1, TnMUC1 (aberrantly glycosylated MUC1) …; test: flow cytometry on MDA-MB-468 cells, scFv pre-complexed with anti-His-PE; mean
Method: as §1, §2

[4] = target: T1, TnMUC1 (aberrantly glycosylated MUC1) …; test: flow cytometry on MDA-MB-468 cells, scFv pre-complexed with anti-His-PE; experiment 75-13
Method: as §1, §2

T1 sequence (P15941 24-1255): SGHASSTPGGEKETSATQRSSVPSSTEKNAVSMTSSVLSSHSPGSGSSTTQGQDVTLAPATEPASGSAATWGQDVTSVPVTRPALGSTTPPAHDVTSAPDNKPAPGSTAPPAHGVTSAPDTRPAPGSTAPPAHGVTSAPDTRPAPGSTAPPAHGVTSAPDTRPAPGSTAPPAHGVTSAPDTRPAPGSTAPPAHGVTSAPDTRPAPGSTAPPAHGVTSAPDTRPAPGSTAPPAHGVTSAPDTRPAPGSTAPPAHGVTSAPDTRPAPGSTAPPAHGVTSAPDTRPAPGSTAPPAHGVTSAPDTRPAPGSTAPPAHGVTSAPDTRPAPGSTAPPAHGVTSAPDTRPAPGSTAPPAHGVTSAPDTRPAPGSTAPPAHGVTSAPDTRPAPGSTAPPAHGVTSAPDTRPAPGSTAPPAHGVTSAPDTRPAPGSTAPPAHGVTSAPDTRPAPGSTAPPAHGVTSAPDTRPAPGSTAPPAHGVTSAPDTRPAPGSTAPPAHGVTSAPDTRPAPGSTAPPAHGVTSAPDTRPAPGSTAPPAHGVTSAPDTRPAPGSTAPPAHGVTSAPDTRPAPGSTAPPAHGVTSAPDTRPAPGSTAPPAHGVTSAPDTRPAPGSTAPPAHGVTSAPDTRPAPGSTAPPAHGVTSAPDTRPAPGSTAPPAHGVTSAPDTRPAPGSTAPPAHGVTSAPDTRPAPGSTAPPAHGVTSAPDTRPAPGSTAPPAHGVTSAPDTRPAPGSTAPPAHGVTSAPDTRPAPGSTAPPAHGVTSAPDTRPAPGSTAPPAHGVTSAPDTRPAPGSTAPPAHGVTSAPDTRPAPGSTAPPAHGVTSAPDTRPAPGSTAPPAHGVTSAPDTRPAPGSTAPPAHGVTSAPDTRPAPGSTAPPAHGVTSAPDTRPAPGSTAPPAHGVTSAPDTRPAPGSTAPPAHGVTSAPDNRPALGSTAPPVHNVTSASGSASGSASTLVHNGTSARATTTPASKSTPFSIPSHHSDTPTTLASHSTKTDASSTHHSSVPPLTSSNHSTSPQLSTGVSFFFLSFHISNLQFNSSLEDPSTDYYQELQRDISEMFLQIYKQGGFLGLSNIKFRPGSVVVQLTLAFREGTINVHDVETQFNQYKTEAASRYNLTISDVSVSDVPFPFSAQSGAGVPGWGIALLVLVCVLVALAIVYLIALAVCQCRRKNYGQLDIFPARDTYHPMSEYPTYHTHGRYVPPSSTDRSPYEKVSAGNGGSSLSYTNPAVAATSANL

B1: humanised anti-TnMUC1 scFv protein 9P1 (88A), VL-VH humanised control (scFv)
scFv: DIVMTQSPDSLAVSLGERATINCKSSQSLLNSGDQKNYLTWYQQKPGQPPKLLIYWASTRESGVPDRFSGSGSGTDFTLTISSLQAEDVAVYYCQNDYSYPLTFGQGTKVEIKGGGGSGGGGSGGGGSGGGGSQVQLVQSGAEVKKTGSSVKVSCKASGYTFTDHAIHWVRQAPGQALEWMGHFSPGNTDIKYNDKFKGRVTLTVDRSMSTAYMELSSLRSEDTAMYYCKTSTFFFDYWGQGTMVTVSSAAAHHHHHH
notes: Control scFv designed from a humanised antibody of WO2015/159076 (10D2 is said to come from Ab2, so 10D1 by implication from Ab1); Neat supernatant of construct 10D1 in the Octet assay; purified protein 9P1 in Biacore and flow cytometry; also called 10D1
[1]
  EC50 (read off the curve): ~6 nM
[2]
  EC50: 3.18 nM
  pEC50: 8.5
[3]
  EC50: 3.09 nM
  pEC50: 8.51
[4]
  EC50: 3 nM
  pEC50: 8.52
